System: MS2 coat protein
Test: apparent KD of MS2 coat protein; designed switch direction (-1 OFF switch, 1 ON switch): 1; higher = weaker reporter binding
Procedure, shortened: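 The apparent KD reported per design is the median over clusters of curve fits to normalised cluster fluorescence. The RNA switches were transcribed on Illumina chips by stalled E. coli RNA polymerase. SNAP-549-labelled MS2 coat protein was titrated from 0.7 or 1.5 nM, doubling up to 3 µM, in Tris-HCl pH 7.5 buffer containing KCl, MgCl2, BSA, DTT, tRNA and Tween-20, with no input, 200 uM small-molecule ligand, or an oligonucleotide input.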

[1] = Eterna round: R95, input ligand: FMN 200 uM
[2] = Eterna round: R95, input ligand: microRNA oligo, concentration not stated
[3] = Eterna round: R95, input ligand: none
[4] = input ligand: microRNA oligo, concentration not stated

Sequence	apparent KD of MS2 coat protein [1]	apparent KD of MS2 coat protein [2]	apparent KD of MS2 coat protein [3]	apparent KD of MS2 coat protein (input ligand: FMN 200 uM)	apparent KD of MS2 coat protein [4]	apparent KD of MS2 coat protein (input ligand: none)
AGAAAGAAAACGCAGGAUAUGGAGCAUGAGACAUGAGGAUCACCCAUGUCAAAAGAAAAGAAGAACCAGAAGGGCGGGAAAGAAA [Default title] (puzzle: Same State 2)	18.5 nM	11.7 nM	15.6 nM			
UGAAUAAUGAUAGGAUAUACAUGAGGAAUCCUCGUAGAAGGAUCAUGACAUGAGGAUCACCCAUGUAGCGCUCAGAAGAGCGCA [Mat - Same State NG 1 - JL mod - D51] (Eterna round: R96, puzzle: Same State NG 1)				160 nM	76.7 nM	191 nM
AGCUAUCGAAAACGAUAGCAGAAGCAUGUACAUGAGGAUCACCCAUGUCAUGUACAAGCUUUUUGCUCGUCUUAAAA [Zipper 23 - 1] (puzzle: Sensor for hsa-mir-208a)	360 nM	17.8 nM	703 nM			
UCAAGCUUUUUGCUCGUUUUAUGUGUUGAACAUGAGGAUCACCCAUGUAUUGUACGAUCCAGUUAGAUGGUAAUUUG [JR_SHM208A_Sub041] (puzzle: Sensor for hsa-mir-208a)	62.5 nM	140 nM	79.8 nM			
CCGAUGUGGGUACAGGAUAUGUGGGCCUCCACAUGAGGAUCACCCAUGUCGGAGGCAAAGCGGCUACAGAAGGGUGCGUGCUCGA [Riinceer] (puzzle: Same State 2)	13.1 nM	11.3 nM	12.3 nM			
AAAGCACAUGAGGAUCACCCAUGUGGAAAUAACACAGGAUAUCCUGCCGAAACUAAGGUGGGAGAAGGGUGACCUA [Iszagece] (puzzle: Same State 1)	147 nM	54 nM	55.9 nM			
AAACACGGCAUAACACCGUGACAUGAGGAUCACCCAUGUACACAGGAUAUCAUGGCAAAACGCCAUGAGAAGGGUGAUCAAGAC [Telate] (Eterna round: R96, puzzle: Same State NG 3)				464 nM	68.1 nM	35.1 nM
CUGAGCGAUUAAGGAUAUCACGUCGAUUAGACGUGAGAAGGUGAUCAUAACAUGAGGAUCACCCAUGUAUUACAUGAAGCUCAG [SSNG1/3-A2] (Eterna round: R96, puzzle: Same State NG 1)				312 nM	36.8 nM	128 nM
AAUCCUGUCACAGGAUAUCCGAGGUCAACCCUCGGAGAAGGGUGAUAGUCUAACAAACACACACAUGAGGAUCACCCAUGUUAA [Bigeceaor] (Eterna round: R96, puzzle: Same State NG 1)				43.1 nM	61.6 nM	79.2 nM
UUACAGUGCGGGUAGGAUAUGUAGGGUGGUACAUGAGGAUCACCCAUGUAUCCACCCUUCUACCGGCAGAAGGGCCUGUCACUGC [Enlaeror] (Eterna round: R96, puzzle: Same State 2)				17.2 nM	9.64 nM	17 nM
UUAUCUCAGACAUGAGGAUCACCCAUGUUUUUUUGUCUUAGACAGGAUAUAGUAGUAUCGAAAUACUAGAAGGGUCAUUUUAUU [JR_SSNG3_Sub023] (Eterna round: R96, puzzle: Same State NG 3)				18.4 nM	23.5 nM	28.9 nM
GUCCAAAACACAGGAUAUCCCAGUCAUGAUCUGGGAGAAGGGUGGCCACAUGAGGAUCACCCAUGUGAAGUGCCAGAGGCACGA [Xexeraed] (Eterna round: R96, puzzle: Same State NG 1)				373 nM	876 nM	1020 nM
ACAAUCUGGGUAGGAUAUCUAGGAUAUGGGAAAGACUAAGUCUGUAGGUCACCUAACCCAGAUGGAGAGAAGGACCCAACACAC [pwkr ssNG2 2FMN + F9.43] (Eterna round: R96, puzzle: Same State NG 2)				95.8 nM	3.94 nM	202 nM

— the supplement of paper PMC9170038
